The source of these data is patent US20230293673A1 (LA JOLLA INSTITUTE FOR IMMUNOLOGY, published 2023).

The target in the experiment is T1, gH ectodomain, FLAG-tagged and lacking its transmembrane anchor (gHecto^F_TBopt) (human cytomegalovirus (HCMV) strain TB40, UniProt P12824 24-709).
T1 sequence: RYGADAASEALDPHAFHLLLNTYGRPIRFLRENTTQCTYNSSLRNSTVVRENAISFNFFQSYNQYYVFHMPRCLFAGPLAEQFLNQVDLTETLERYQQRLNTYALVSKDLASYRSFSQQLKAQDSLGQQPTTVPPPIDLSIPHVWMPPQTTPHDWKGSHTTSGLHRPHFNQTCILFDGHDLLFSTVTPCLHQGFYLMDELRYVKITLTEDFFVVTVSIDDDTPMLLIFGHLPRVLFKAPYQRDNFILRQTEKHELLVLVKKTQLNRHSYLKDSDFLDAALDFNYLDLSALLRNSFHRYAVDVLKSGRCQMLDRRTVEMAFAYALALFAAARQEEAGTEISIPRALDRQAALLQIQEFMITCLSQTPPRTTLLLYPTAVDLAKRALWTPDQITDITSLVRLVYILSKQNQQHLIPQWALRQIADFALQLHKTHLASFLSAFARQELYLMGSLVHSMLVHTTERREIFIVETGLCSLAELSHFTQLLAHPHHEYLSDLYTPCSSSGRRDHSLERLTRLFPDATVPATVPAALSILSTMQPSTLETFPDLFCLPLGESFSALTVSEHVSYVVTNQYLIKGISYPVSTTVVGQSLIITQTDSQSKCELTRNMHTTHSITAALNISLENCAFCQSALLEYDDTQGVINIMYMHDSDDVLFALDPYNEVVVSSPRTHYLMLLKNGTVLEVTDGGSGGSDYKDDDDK
Kind of experiment: His-tag purification from Expi293F supernatant after co-expression, Western blot (FIG. 2B). (A western blot detects proteins with antibodies after separation by electrophoresis.)

B1: octahistidine-tagged UL141 ectodomain (UL141ecto_3C His) (other)
chain: DIAEKMWAENYETTSPAPVLVAEGEQVTIPCTVMTHSWPMVSIRARFCRSHDGSDELILDAVKGHRLMNGLQYRLPYATWNFSQLHLGQIFSLTFNVSTDTAGMYECVLRNYSHGLIMQRFVILTQLETLSRPDEPCCTPALGRYSLGDQIWSPTPWRLRNHDCGMYRGFQRNYFYIGRADAEDCWKPACPDEEPDRCWTVIQRYRLPGDCYRSQPHPPKFLPVTPAPPADIDTGMSPWATR
notes: extracellular domain; not shown: C-terminal '3C' site and octahistidine tag
Regarding B1, the binding result was “binds”.
